In patent publication US20230364186A1 (CURA THERAPEUTICS, published 2023) one finds IC50 data, which are given here for two molecules.

For assay [1], the target named is active TGFβ3 (UniProt P10600). Nature of the assay: blocking of active TGFβ3 (1 ng/mL) in solution, 30 min in PBS; free TGFβ3 by ELISA.
For assay [2], the target named is T1, Human active TGFβ1 (human, UniProt P01137 279-390).
T1 construct: mature; also called TGFB1
As to the kind of experiment: blocking of active TGFβ1 (1 ng/mL) in solution, 30 min in PBS; free TGFβ1 by ELISA. The source says: TGFβ causes a wide range of immune suppression in several immune cell types including inhibition of crucial early innate IFN responses.

T1 sequence (P01137 279-390 limits assumed): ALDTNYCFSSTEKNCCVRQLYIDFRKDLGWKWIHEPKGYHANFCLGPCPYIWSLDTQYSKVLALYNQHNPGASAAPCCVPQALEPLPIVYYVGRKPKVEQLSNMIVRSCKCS
Chain of active TGFβ3 (P10600 301-412): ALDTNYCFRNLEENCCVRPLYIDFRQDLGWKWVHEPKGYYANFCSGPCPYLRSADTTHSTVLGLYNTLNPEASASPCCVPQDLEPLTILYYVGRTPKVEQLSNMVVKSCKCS

For FIST (monovalent FIST; IL2-sTBRII), the values for the IC50 in assay [1] and in assay [2] were 3.6 nM and 1.29 nM, respectively.

B1: TβRII isoform 2 (receptor, UniProt P37173-2 24-184, looked up)
chain: IPPHVQKSDVEMEAQKDEIICPSCNRTAHPLRHINNDMIVTDNNGAVKFPQLCKFCDVRFSTCDNQKSCMSNCSITSICEKPQEVCVAVWRKNDENITLETVCHDPKLPYHDFILEDAASPKCIMKEKKKPGETFFMCSCSSDECNDNIIFSEEYNTSNPD
notes: also called TβRll (isoform II); control (TβRII isoform 2)
Regarding B1, the IC50 in assay [2] amounted to 0.02 nM.
